Results as given in IntAct's records for PubMed 25416956.

B1: Keratin, type II cytoskeletal 6A (Homo sapiens), P02538 (parent)
chain: MASTSTTIRSHSSSRRGFSANSARLPGVSRSGFSSVSVSRSRGSGGLGGACGGAGFGSRSLYGLGGSKRISIGGGSCAISGGYGSRAGGSYGFGGAGSGFGFGGGAGIGFGLGGGAGLAGGFGGPGFPVCPPGGIQEVTVNQSLLTPLNLQIDPTIQRVRAEEREQIKTLNNKFASFIDKVRFLEQQNKVLETKWTLLQEQGTKTVRQNLEPLFEQYINNLRRQLDSIVGERGRLDSELRGMQDLVEDFKNKYEDEINKRTAAENEFVTLKKDVDAAYMNKVELQAKADTLTDEINFLRALYDAELSQMQTHISDTSVVLSMDNNRNLDLDSIIAEVKAQYEEIAQRSRAEAESWYQTKYEELQVTAGRHGDDLRNTKQEIAEINRMIQRLRSEIDHVKKQCANLQAAIADAEQRGEMALKDAKNKLEGLEDALQKAKQDLARLLKEYQELMNVKLALDVEIATYRKLLEGEECRLNGEGVGQVNISVVQSTVSSGYGGASGVGSGLGLGGGSSYSYGSGLGVGGGFSSSSGRAIGGGLSSVGGGSSTIKYTTTSSSSRKSYKH
partner: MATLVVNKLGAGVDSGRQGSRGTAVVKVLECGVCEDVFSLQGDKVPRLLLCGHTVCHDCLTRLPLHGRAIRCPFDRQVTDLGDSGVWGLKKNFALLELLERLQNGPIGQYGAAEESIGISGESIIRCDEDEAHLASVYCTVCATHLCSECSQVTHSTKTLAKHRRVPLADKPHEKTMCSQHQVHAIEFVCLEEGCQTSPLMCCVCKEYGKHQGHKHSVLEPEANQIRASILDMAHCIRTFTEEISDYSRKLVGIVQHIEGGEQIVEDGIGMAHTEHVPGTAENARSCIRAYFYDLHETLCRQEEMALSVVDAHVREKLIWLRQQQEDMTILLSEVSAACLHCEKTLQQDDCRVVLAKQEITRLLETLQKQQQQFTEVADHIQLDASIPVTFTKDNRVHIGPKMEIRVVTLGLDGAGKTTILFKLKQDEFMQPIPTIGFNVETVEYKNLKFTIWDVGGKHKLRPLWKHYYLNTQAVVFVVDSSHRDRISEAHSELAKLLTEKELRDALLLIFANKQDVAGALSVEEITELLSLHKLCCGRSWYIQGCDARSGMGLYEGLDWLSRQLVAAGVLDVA
B2: Chorion-specific transcription factor GCMb (Homo sapiens), O75603 (parent)
chain: MPAAAVQEAVGVCSYGMQLSWDINDPQMPQELALFDQFREWPDGYVRFIYSSDEKKAQRHLSGWAMRNTNNHNGHILKKSCLGVVVCTQACTLPDGSRLQLRPAICDKARLKQQKKACPNCHSALELIPCRGHSGYPVTNFWRLDGNAIFFQAKGVHDHPRPESKSETEARRSAIKRQMASFYQPQKKRIRESEAEENQDSSGHFSNIPPLENPEDFDIVTETSFPIPGQPCPSFPKSDVYKATCDLATFQGDKMPPFQKYSSPRIYLPRPPCSYELANPGYTNSSPYPTLYKDSTSIPNDTDWVHLNTLQCNVNSYSSYERSFDFTNKQHGWKPALGKPSLVERTNHGQFQAMATRPYYNPELPCRYLTTPPPGAPALQTVITTTTKVSYQAYQPPAMKYSDSVREVKSLSSCNYAPEDTGMSVYPEPWGPPVTVTRAASPSGPPPMKIAGDCRAIRPTVAIPHEPVSSRTDEAETWDVCLSGLGSAVSYSDRVGPFFTYNNEDF
partner: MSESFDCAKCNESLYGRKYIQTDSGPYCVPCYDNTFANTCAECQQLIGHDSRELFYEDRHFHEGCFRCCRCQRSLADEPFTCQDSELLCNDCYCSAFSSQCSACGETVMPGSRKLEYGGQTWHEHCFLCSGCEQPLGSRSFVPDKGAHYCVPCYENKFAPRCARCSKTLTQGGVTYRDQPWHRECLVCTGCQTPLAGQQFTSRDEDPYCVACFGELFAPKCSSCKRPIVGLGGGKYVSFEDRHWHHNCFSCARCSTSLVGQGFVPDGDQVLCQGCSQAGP

Variants of: B1
Details: with tri23_human TRIM23, P36406

Which “effect of a mutation on the interaction” value does the source give for MASTSTTIRSHSSSRRGFSANSARLPGVSRSGFSSVSVSRSRGSGGLGGACGGAGFGSRSLYGLGGSKRISIGGGSCAISGGYGSRAGGSYGFGGAGSGFGFGGGAGIGFGLGGGAGLAGGFGGPGFPVCPPGGIQEVTVNQSLLTPLNLQIDPTIQRVRAEEREQIKTLNNKFASFIDKVRFLEQQNKVLETKWTLLQEQGTKTVRQNLEPLFEQYINNLRRQLDSIVGERGRLDSELRGMQDLVEDFKNKYEDEINKRTAAENEFVTLKKDVDAAYMNKVELQAKADTLTDEINFLRALYDAELSQMQTHISDTSVVLSMDNNRNLDLDSIIAEVKAQYEEIAQRSRAEAESWYQTKYEELQVTAGRHGDDLRNTKQEIAEINRMIQRLRSEIDHVKKQCANLQAAIADAEQRGEMALKDAKNKLEGLEDALQKAKQDLARLLKEYQELMNVKLALDVEIPTYRKLLEGEECRLNGEGVGQVNISVVQSTVSSGYGGASGVGSGLGLGGGSSYSYGSGLGVGGGFSSSSGRAIGGGLSSVGGGSSTIKYTTTSSSSRKSYKH [A463P] here?
The value was “disrupting interaction”.

Variants of: B1
Details: with tri23_human TRIM23, P36406
Remark: another data set of the same source

How did the “effect of a mutation on the interaction” value turn out when MASTSTTIRSHSSSRRGFSANSARLPGVSRSGFSSVSVSRSRGSGGLGGACGGAGFGSRSLYGLGGSKRISIGGGSCAISGGYGSRAGGSYGFGGAGSGFGFGGGAGIGFGLGGGAGLAGGFGGPGFPVCPPGGIQEVTVNQSLLTPLNLQIDPTIQRVRAEEREQIKTLNNKFASFIDKVRFLEQQNKVLETKWTLLQEQGTKTVRQNLEPLFEQYINNLRRQLDSIVGERGRLDSELRGMQDLVEDFKNKYEDEINKRTAAENEFVTLKKDVDAAYMNKVELQAKADTLTDEINFLRALYDAELSQMQTHISDTSVVLSMDNNRNLDLDSIIAEVKAQYEEIAQRSRAEAESWYQTKYEELQVTAGRHGDDLRNTKQEIAEINRMIQRLRSEIDHVKKQCANLQAAIADAEQRGEMALKDAKNKLEGLEDALQKAKQDLARLLKEYQELMNVKLALDVESATYRKLLEGEECRLNGEGVGQVNISVVQSTVSSGYGGASGVGSGLGLGGGSSYSYGSGLGVGGGFSSSSGRAIGGGLSSVGGGSSTIKYTTTSSSSRKSYKH [I462S] was run?
Its value is “disrupting interaction”.

Variants of: B1
Details: with tri23_human TRIM23, P36406
Remark: another data set of the same source

For MASTSTTIRSHSSSRRGFSANSARLPGVSRSGFSSVSVSRSRGSGGLGGACGGAGFGSRSLYGLGGSKRISIGGGSCAISGGYGSRAGGSYGFGGAGSGFGFGGGAGIGFGLGGGAGLAGGFGGPGFPVCPPGGIQEVTVNQSLLTPLNLQIDPTIQRVRAEEREQIKTLKNKFASFIDKVRFLEQQNKVLETKWTLLQEQGTKTVRQNLEPLFEQYINNLRRQLDSIVGERGRLDSELRGMQDLVEDFKNKYEDEINKRTAAENEFVTLKKDVDAAYMNKVELQAKADTLTDEINFLRALYDAELSQMQTHISDTSVVLSMDNNRNLDLDSIIAEVKAQYEEIAQRSRAEAESWYQTKYEELQVTAGRHGDDLRNTKQEIAEINRMIQRLRSEIDHVKKQCANLQAAIADAEQRGEMALKDAKNKLEGLEDALQKAKQDLARLLKEYQELMNVKLALDVEIATYRKLLEGEECRLNGEGVGQVNISVVQSTVSSGYGGASGVGSGLGLGGGSSYSYGSGLGVGGGFSSSSGRAIGGGLSSVGGGSSTIKYTTTSSSSRKSYKH [N171K], which “effect of a mutation on the interaction” value is on record?
The value was “disrupting interaction”.

Variants of: B2
Details: with fhl3_human FHL3, Q13643

For MPAAAVQEAVGVCSYGMQLSWDINDPQMPQELALFDQFREWPDGYVLFIYSSDEKKAQRHLSGWAMRNTNNHNGHILKKSCLGVVVCTQACTLPDGSRLQLRPAICDKARLKQQKKACPNCHSALELIPCRGHSGYPVTNFWRLDGNAIFFQAKGVHDHPRPESKSETEARRSAIKRQMASFYQPQKKRIRESEAEENQDSSGHFSNIPPLENPEDFDIVTETSFPIPGQPCPSFPKSDVYKATCDLATFQGDKMPPFQKYSSPRIYLPRPPCSYELANPGYTNSSPYPTLYKDSTSIPNDTDWVHLNTLQCNVNSYSSYERSFDFTNKQHGWKPALGKPSLVERTNHGQFQAMATRPYYNPELPCRYLTTPPPGAPALQTVITTTTKVSYQAYQPPAMKYSDSVREVKSLSSCNYAPEDTGMSVYPEPWGPPVTVTRAASPSGPPPMKIAGDCRAIRPTVAIPHEPVSSRTDEAETWDVCLSGLGSAVSYSDRVGPFFTYNNEDF [R47L], which “effect of a mutation on the interaction” value is on record?
Its value is “disrupting interaction”.
